Results on 11 molecules are retold here after patent US20110044986A1 (Amgen, published 2011).

Where a chain is given by its changes, count along the chain named.

To fix the notation:
B1: antibody 1.7 (antibody, V domains shown)
VH: QVTLKESGPVLVKPTETLTLTCTVSGFSLSNARMSVSWIRQPPGKALEWLAHIFSNDEKSYSTSLKSRLTISKDTSKSQVVLTMTNMDPVDTATYYCARIRGTVGFDYWGQGTLVTVSS
VL: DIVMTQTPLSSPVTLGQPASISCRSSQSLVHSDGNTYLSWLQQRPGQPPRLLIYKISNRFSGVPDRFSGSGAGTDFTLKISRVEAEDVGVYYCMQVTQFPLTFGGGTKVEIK
notes: Human antibody from a Xenomouse hybridoma (IgG1 or IgG4 strains); also called Ab 1.7; human antibody 1.7
B2: antibody 1.1 (antibody, human IgG1, kappa, V domains shown)
VH: B1 VH with F106Y
VL: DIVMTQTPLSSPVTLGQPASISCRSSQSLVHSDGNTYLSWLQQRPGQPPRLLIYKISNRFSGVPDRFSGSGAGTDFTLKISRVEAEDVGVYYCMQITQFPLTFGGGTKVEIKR
notes: also called Ab 1.1; human antibody 1.1
B3: antibody 1.2 (antibody, human IgG1, kappa, V domains shown)
VH: QVTLKESGPVLLKPTETLTLTCTVSGFSLSNARMGVSWIRQPPGKALEWLAHIFSNDEKSYITSLKSRLTISKDTSKSQVVLTMTNMDPVDTATYYCARIPLRSPGAFDIWGQGTMVTVSS
VL: DIVMTQTPLSSPVTLGQPASISCRSSQSLVHSDGNTYLNWLQQRPGQPPRLLIYKISNRFSGVPDRFTGSGAGTDFTLKISRVEAEDVGVYTCMQVTQFPLTFGQGTRLEIKR
notes: also called Ab 1.2; human antibody 1.2
B4: antibody 1.9 (antibody, human IgG1, kappa, V domains shown)
VH: B3 VH with L12V, I62S, S76F
VL: B3 VL with D1E, G34R, N39S, T68S, T92Y, V96T, F99L, T107A
notes: also called Ab 1.9; human antibody 1.9
B5: antibody 1.15 (antibody, V domains shown)
VH: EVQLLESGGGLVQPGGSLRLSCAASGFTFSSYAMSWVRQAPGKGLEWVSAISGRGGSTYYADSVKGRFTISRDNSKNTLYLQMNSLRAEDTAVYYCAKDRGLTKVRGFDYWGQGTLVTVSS
VL: DVVMTQSPFSLPVTLGQPASISCRSSQSLVYSDGNTSLNWFQQRPGQSPRRLIYKVSKWDSGVPDRFSGSGSGTDFTLKISRVEAEDVGVYYCMQGTHWPRGFTFGPGTKVDIK
notes: Human anti-Aβ antibody
B6: antibody 6.27 (antibody, V domains shown)
VH: QVQLQESGPGLVKPSKTLSLTCTVSGGSISSYYWSWIRQPAGKGLEWIGRIYTSGSTNLNPSLKSRVTMSIDTSKSQFSLKLSSVTAADTAVYYCARLELRNYYYGMDVWGQGTTVTVSS
VL: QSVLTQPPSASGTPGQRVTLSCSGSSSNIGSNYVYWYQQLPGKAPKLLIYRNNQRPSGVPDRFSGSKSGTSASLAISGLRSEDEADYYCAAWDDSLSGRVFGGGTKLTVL
notes: Human anti-Aβ antibody; also called Ab 6.27
B7: antibody 1.14 (antibody, V domains shown)
VH: EVQLVESGGGLVQPGGSLRLSCAASGFTFSSYSMNWVRQAPGKGLEWVSYISRSSSAIYYADSVKGRFTISRDNAKNSLYLQMNSLRDEDTAVYYCARETTVTTRFYYYYYGVDVWGQGTTVTVSS
VL: DIQMTQSPSSVSASVGDRVTITCRASQGISSWLAWFQQKPGKAPKLLIYAASSLQSGVPSRFSGSGSGTDFTLTISSLQPEDFATYYCQQANSFPRTFGQGTKVEIK
notes: Human anti-Aβ antibody
B8: antibody 6.18 (antibody, V domains shown)
VH: B7 VH with V48L, R53S, S54R, A57T, T100R, V102G, F106Y, V113M
VL: B7 VL with F36S
notes: Human anti-Aβ antibody; also called Ab 6.18
B9: antibody 7.11 (antibody, V domains shown)
VH: QLQLQESGPGLVKPSETLSLTCTVSGGSISSSRYYWGWIRQPPGKGLEWIGSISYRGNTYYYPSLKSRVTISVDTSKNQFSLKLNSVTAADTAVYYCARRTYSSGWSYFDYWGQGTLVTVSS
VL: SYELTQPYSMSVATAQMARITCGGNNIGSKAVHWYQQKPGQDPVLVIYSDSNRPSGIPERFSGSNPGNTATLTISRIEAGDEANYYCQVWDSSSDHWVFGGGTKLTVL
notes: Human anti-Aβ antibody; also called Ab 7.11
B10: antibody 7.2 (antibody, V domains shown)
VH: QVQLVESGGGVVQPGRSLRLSCAASGFTFSSYGMHWVRQAPGKGLEWVAVIWYDGSNKYYADSVKGRFTISRDISKNTLYLQMNSLRAEDTAVYYCARSGPPLYSGIYYYYGMDVWGQGTTVTVSS
VL: SSELTQDPAVSVALGQTVRITCQGDSLRAYYAHWYQQKPGQAPVLVIYGKNNRPSGIPDRFSGSNSGNTASLTITGAQAEDEADYYCNSRDSSGNHVVFGGGTKLTVL
notes: Human anti-Aβ antibody; also called Ab 7.2
B11: antibody 7.28 (antibody, V domains shown)
VH: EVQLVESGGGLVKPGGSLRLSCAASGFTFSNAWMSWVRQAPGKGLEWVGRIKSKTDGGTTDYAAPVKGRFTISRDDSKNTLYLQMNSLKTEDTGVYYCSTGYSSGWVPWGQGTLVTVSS
VL: QSVLTQPPSVSAAPGQKVTISCSGSSSNIGNNYVFWYQQLPGTAPKLLIYDNNKRPSGIPDRFSGSKSGTSATLGITGLQTGDEADYYCGTWDSSLSAGVFGGGTKVTAL
notes: Human anti-Aβ antibody; also called Ab 7.28

T2 sequence (peptide, as listed by the source): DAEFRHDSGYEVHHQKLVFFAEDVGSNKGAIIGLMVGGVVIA

One assay concerns the target amyloid plaques in unfixed Tg2576 mouse brain sections (human, UniProt P05067 672-713, limits assumed). Briefly: cell-based or functional assay.
For B1, the “EC50 of ex vivo phagocytosis” value came out at 2 mg/L.

For another assay, the target named is T1, human Aβ40 monomer (human).
T1 construct: also called soluble Aβ40
T1 sequence (peptide, as listed by the source): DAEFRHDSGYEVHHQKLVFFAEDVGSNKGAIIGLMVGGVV
Kind of assay: ELISA, monomer coated on plate, europium TRF. How it is done:
(§1) The same techniques were used for the coating of the microtiter plate for monomer ELISA. The fibrils Aβ monomer were diluted to 2.5 μg/ml in Coating buffer and mixed thoroughly. The solution was aliquoted into the wells of a microtiter plate [Immulon-2; VWR; Cat.# 62404-972] at 100 μl per well. The plate was sealed and incubated overnight at 4° C. The plate was washed 5-10× to remove Aβ coating solution prior to starting the assay.
(§2) The wells were blocked with 200 μl of blocking solution and incubated for ≧1 hour at room temperature (RT) with shaking. The blocking solution was flicked out and gently dried on a paper towel. 100 μl of primary antibody diluted in PBS containing 10% blocking solution was added to each well and the plate was incubated at RT for 1 hour with shaking. The plate was washed with 5-10× in TBS, pH 7.5+0.05% Tween 20. 100 μl of secondary antibodies (each diluted 1-2,000-fold in PBS) was added to each well and the plate was incubate at RT for 1 hour with shaking. The plate was washed with 5-10× in TBS, pH 7.5+0.05% Tween 20. 100 μl Streptavidin-Europium reagent (1-1,000-fold dilution) was added (100 μL/well) and the plate was incubated at room temperature for 45 minutes with shaking. The plate was washed 5-10× in TBS, pH 7.5+0.05% Tween 20. 120 μl Enhance Solution was added and the plate was incubated at room temperature for 15-30 minutes with shaking. The plate was read on a Victor TRF plate reader (Europium program).
A general note: In an ELISA, binding on a coated surface is turned into a signal by an enzyme label.
Take B1: a half-maximal response (EC50) required 0.615 nM.

Turning to B2, the EC50 – broadly, the concentration giving half of the maximal effect – was determined as 0.054 nM.

Consider B3, for which the EC50 was determined as 0.689 nM.

The molecule B4 gave a half-maximal effective concentration (EC50) of 0.042 nM.

The next assay concerns the target T2, human Aβ42 monomer (human).
T2 construct: also called soluble Aβ42; monomeric Aβ42
Kind of assay: ELISA, monomer coated on plate, europium TRF. The protocol:
as §1, §2
The molecule B1 showed an EC50 of 0.052 nM.

B2 gave an EC50 of 0.045 nM.

The molecule B3 showed an EC50 of 0.056 nM.

Regarding B4, a half-maximal effect (EC50) was put at 0.037 nM.

In another assay the target is T1, human Aβ40 monomer. Briefly: BIAcore, antibody captured on protein G, Aβ monomer injected. How it is done: (§3) Preparation of Biacore Chip Surfaces: Immobilization of Proteins to a BIAcore sensor chip (CM5) was performed according to manufacturer's instructions. Briefly, carboxyl groups on the sensor chip surfaces were activated by injecting 60 μL of a mixture containing 0.2 M N-ethyl-N′-(dimethylaminopropyl) carbodiimide (EDC) and 0.05 M N-hydroxysuccinimide (NHS). Specific surfaces were obtained by injecting rProtein G (Pierce), goat anti-mouse Fc (Jackson Immuno Research Lab) or Aβ aggregates diluted in 10 mM acetate, pH 4.0 at concentrations between 5 and 20 μg/mL. Excess reactive groups on the surfaces were deactivated by injecting 60 μL of 1 M ethanolamine. […] A blank, mock-coupled reference surface was also prepared on the sensor chips for background subtraction.
(§4) Kinetic analysis of Aβ monomers binding to protein G captured antibodies: The kinetic analysis of the interaction between Aβ monomers and antibodies was performed as follows: Antibodies to be tested were diluted in PBS+0.005% P-20+0.1 mg/mL BSA and injected over the immobilized protein G Fc surface. Aβ monomers were diluted in PBS+0.005% P-20+0.1 mg/mL BSA from 1000 nM to 2 nM, and each concentration was injected over the captured antibody surfaces.
A general note: Surface plasmon resonance follows binding to a sensor surface in real time, without labels.
For the molecule B1, the Kd was > 200 nM.

For the molecule B2, the Kd was 117 nM; the koff (in general, a measure of how fast the partners let go of each other) was 0.015 s⁻¹; the kon – broadly, the second-order rate constant of association – was determined as 130000 M⁻¹ s⁻¹.

Regarding B3, the Kd is > 200 nM.

B4: the Kd is > 200 nM.

Another assay concerns the target T2, human Aβ42 monomer. The assay is described as above. The protocol: as §3, §4
B1: the Kd is > 20 nM.

The molecule B2 gave a Kd of 16 nM, a koff of 0.0039 s⁻¹ and an on-rate constant (kon) of 240000 M⁻¹ s⁻¹.

B3 registered a Kd of 14 nM, a koff of 0.0011 s⁻¹ and an on-rate constant (kon) of 78000 M⁻¹ s⁻¹.

Turning to B4, the Kd is 47 nM, the koff is 0.0029 s⁻¹ and the on-rate (kon) amounted to 61000 M⁻¹ s⁻¹.

The target of another assay is T3, human Aβ42 fibrils (human).
T3 construct: Fibrillar aggregate of the 42-residue peptide prepared in vitro; also called Fibrillar Aβ42; Aβ42 amyloid fibrils
Briefly: ELISA, fibrils dried on plate, europium TRF. How it is done:
(§5) The fibrils (Aβ or collagen) were diluted to 10 μg/ml in water and mixed thoroughly. The solution was aliquoted into the wells of a microtiter plate (Immulon-2; VWR; Cat # 62404-972) at 50 μl per well (resulting in 0.5 μg fibrils/well final). The plate was dried overnight by being placed uncovered in a 37° C. incubator.
as §2
Molecule B1 returned a 50% effective concentration (EC50) of 0.071 nM.

B2 returned an EC50 of 0.082 nM.

B3 showed an EC50 of 0.086 nM.

Take B4: the midpoint of the response, the EC50, lay at 0.096 nM.

For the next assay, the target named is T4, human Aβ40 fibrils (human).
T4 construct: Fibrillar aggregate of the 40-residue peptide prepared in vitro; also called Fibrillar Aβ40; Aβ40 amyloid fibrils
Kind of assay: ELISA, fibrils dried on plate, europium TRF. How it is done: as §5, §2
Regarding B1, the EC50 was found to be 0.09 nM.

As for B2, the EC50 came out at 0.133 nM.

The molecule B3 came in with an EC50 of 0.115 nM.

B4 registered a 50% effective concentration (EC50) of 0.195 nM.

A further assay concerns the target T3, human Aβ42 fibrils. Kind of assay: BIAcore, fibrils immobilized, antibody injected. How it is done:
as §3
(§6) Kinetic analysis of antibodies binding to immobilized Aβ fibrils: Avidity measurements to Aβ fibrils were made by immobilizing amyloid fibrils on the sensor chip surface followed by injection of antibody solutions over the surface, and injection of antibody solutions over a blank surface for background subtraction. Antibodies were diluted in PBS+0.005% P-20+0.1 mg/mL BSA at concentrations varying from 100 nM to 0.2 nM.
B5 registered a koff of 0.0011 s⁻¹.

Regarding B6, the koff is 0.0021 s⁻¹.

B7 returned an off-rate (koff) of 0.00087 s⁻¹.

As to B8, the koff came out at 0.0026 s⁻¹.

Turning to B9, the off-rate (koff) was determined as 0.00049 s⁻¹.

With B10, the koff was 0.00029 s⁻¹.

Take B11: the koff came to 0.00021 s⁻¹.

In a further assay the target is T4, human Aβ40 fibrils. Kind of assay: BIAcore, fibrils immobilized, antibody injected. How it is done:
as §3, §6
As for B5, the koff worked out at 0.00096 s⁻¹.

Regarding B6, the dissociation rate constant (koff) amounted to 0.005 s⁻¹.

Turning to B7, the koff was found to be 0.0013 s⁻¹.

The molecule B8 returned a koff of 0.004 s⁻¹.

With B9, the off-rate constant (koff) was 0.0008 s⁻¹.

The molecule B10 came in with a koff of 0.00014 s⁻¹.

The molecule B11 yielded a dissociation rate constant (koff) of 8.2e-05 s⁻¹.

Another assay has as its target T3, human Aβ42 fibrils. Kind of assay: BIAcore, fibrils immobilized, antibody injected (avidity). The protocol:
as §3, §6
Consider B1, for which the Kd amounted to 2.9 nM, the koff turned out to be 0.0005 s⁻¹ and the kon came to 170000 M⁻¹ s⁻¹.

Consider B2, for which the Kd was found to be 0.8 nM, the koff is 0.00016 s⁻¹ and the kon is 200000 M⁻¹ s⁻¹.

On to B3, for which the Kd was determined as 1.7 nM, the off-rate (koff) came to 0.00019 s⁻¹ and the kon was determined as 170000 M⁻¹ s⁻¹.

In turn, B4 displayed a Kd of 1.8 nM, an off-rate constant (koff) of 0.00019 s⁻¹ and a kon of 110000 M⁻¹ s⁻¹.

Another assay deals with T4, human Aβ40 fibrils. The description is as above. The protocol:
as §3, §6
Regarding B1, the Kd was 0.1 nM, the off-rate constant (koff) turned out to be 0.00042 s⁻¹ and the association rate constant (kon) was found to be 3.8e+06 M⁻¹ s⁻¹.

With B2, the Kd came to 0.02 nM, the koff was found to be 8.1e-05 s⁻¹ and the kon was 4.2e+06 M⁻¹ s⁻¹.

Take B3: the Kd worked out at 0.06 nM, the koff amounted to 0.00017 s⁻¹ and the kon was determined as 2.9e+06 M⁻¹ s⁻¹.

For the molecule B4, the Kd came to 0.03 nM, the off-rate (koff) was 0.00017 s⁻¹ and the kon worked out at 5.3e+06 M⁻¹ s⁻¹.

The target of a further assay is T5, Aβ42 oligomers (human).
T5 construct: Soluble oligomers prepared from Aβ42 peptide in Ham's F-12; dimer, trimer and tetramer were seen on the blot; also called soluble, oligomeric species of Aβ42; Aβ42 dimer, trimer, and tetramer
Kind of assay: immunoprecipitation / Western blot. (In general: Immunoblotting shows a protein as a band on a membrane.)
Regarding B1, the binding result is reported as “binds”.

For B3, the binding result is “binds”.
